From paper PMC5866196

B1: PCSK9A4-DNA (ssDNA)
DNA: CGAATCAGATTGGACCAGCCCCAATGCTTTTCGTTTCTATCACGTCTTTAGCGGTACCTATTCGAGTCCAGATGTAGGTAG
modifications: no side-chains
B2: PCSK9A5-DNA (ssDNA)
DNA: CGAATCAGATTGGACCAGCCACGTTACTGATTCTTCTACCGTTTTTGCCCCCGGCACCTTCTGGAGTCCAGATGTAGGTAG
modifications: no side-chains
B3: PCSK9A1-DNA (ssDNA)
DNA: CGAATCAGATTGGACCAGCCACTATATTCTCTCTCCTACCGTTTGCCTTTGCATCACCTTCTGGAGTCCAGATGTAGGTAG
modifications: no side-chains
B4: PCSK9A2-DNA (ssDNA)
DNA: CGAATCAGATTGGACCAGCAACAATGATTCTTCTACCGTTTTTGCCCTCACCTTCTGCGCTGAGAGTCCAGATGTAGGTAG
modifications: no side-chains
B5: PCSK9A7-DNA (ssDNA)
DNA: CGAATCAGATTGGACCAGTCTTCCCTATTCCTCTACCGTTTGTTCTCTTACTTTCACCTTCTGGAGTCCAGATGTAGGTAG
modifications: no side-chains
B6: PCSK9A3-DNA (ssDNA)
DNA: CGAATCAGATTGGACCAGTCTCTACAACCTCTTTCATGTCTTTAGCACTACTTATCCTGATCAGAGTCCAGATGTAGGTAG
modifications: no side-chains
B7: PCSK9A6-DNA (ssDNA)
DNA: CGAATCAGATTGGACCAGTTTCAACCTCTTCTGCCTTCTCCACGGCTCCTTCTGCGTTGTTCCGAGTCCAGATGTAGGTAG
modifications: no side-chains

These binders were tested against PCSK9 (UniProt Q8NBP7 31-692) (assay: bead retention).
PCSK9, sequence (Q8NBP7 31-692): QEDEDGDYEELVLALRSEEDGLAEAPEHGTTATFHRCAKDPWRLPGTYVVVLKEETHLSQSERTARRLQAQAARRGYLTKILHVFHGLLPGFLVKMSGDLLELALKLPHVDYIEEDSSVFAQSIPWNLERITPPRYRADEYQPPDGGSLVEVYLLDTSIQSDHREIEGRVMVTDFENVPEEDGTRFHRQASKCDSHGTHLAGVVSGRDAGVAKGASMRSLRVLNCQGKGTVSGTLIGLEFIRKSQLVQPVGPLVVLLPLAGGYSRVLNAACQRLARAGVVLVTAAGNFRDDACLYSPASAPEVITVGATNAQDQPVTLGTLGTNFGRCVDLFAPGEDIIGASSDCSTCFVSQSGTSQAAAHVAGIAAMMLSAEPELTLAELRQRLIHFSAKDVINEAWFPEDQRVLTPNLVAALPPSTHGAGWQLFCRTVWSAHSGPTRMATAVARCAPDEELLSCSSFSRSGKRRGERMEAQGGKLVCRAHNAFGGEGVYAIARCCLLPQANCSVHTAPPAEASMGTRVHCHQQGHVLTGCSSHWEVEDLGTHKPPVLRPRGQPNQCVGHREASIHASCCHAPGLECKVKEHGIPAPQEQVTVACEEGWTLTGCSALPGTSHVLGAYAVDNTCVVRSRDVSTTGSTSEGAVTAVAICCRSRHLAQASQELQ

Binding result, no binding:
B1
B2
B3
B4
B5
B6
B7
